Data on seven molecules can be found in JPH10324699A (dated 1998).

To fix the notation:
T1: ヒトFas抗原 (ヒトリンパ球細胞株HPB−ALL細胞上) (human, UniProt P25445 26-335)
T1 sequence (looked up): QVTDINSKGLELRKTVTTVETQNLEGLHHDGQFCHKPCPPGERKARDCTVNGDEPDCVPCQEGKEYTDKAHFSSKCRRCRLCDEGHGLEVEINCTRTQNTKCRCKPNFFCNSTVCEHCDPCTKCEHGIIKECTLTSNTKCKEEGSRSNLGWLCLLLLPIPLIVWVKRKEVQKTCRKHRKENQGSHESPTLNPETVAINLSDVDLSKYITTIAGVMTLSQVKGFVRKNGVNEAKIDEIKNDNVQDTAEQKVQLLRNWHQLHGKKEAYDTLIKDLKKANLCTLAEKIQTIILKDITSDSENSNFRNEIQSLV

B1: マウス抗ヒトFas抗体CH11(MBL社) (antibody, mouse IgM)
heavy: EVQLQQSGPELVKPGASVKISCKASGYTFTDYNMHWVKQSHGKSLEWIGYIYPYNGGTGYNQKFKSKATLTVDNSSSTAYMELRSLTSEDSAVYYCARSYYAMDYWGQGTSVTVSSESQSFPNVFPLVSCESPLSDKNLVAMGCLARDFLPSTISFTWNYQNNTEVIQGIRTFPTLRTGGKYLATSQVLLSPKSILEGSDEYLVCKIHYGGKNRDLHVPIPAVAEMNPNVNVFVPPRDGFSGPAPRKSKLICEATNFTPKPITVSWLKDGKLVESGFTTDPVTIENKGSTPQTYKVISTLTISEIDWLNLNVYTCRVDHRGLTFLKNVSSTCAASPSTDILTFTIPPSFADIFLSKSANLTCLVSNLATYETLNISWASQSGEPLETKIKIMESHPNGTFSAKGVASVCVEDWNNRKEFVCTVTHRDLPSPQKKFISKPNEVHKHPPAVYLLPPAREQLNLRESATVTCLVKGFSPADISVQWLQRGQLLPQEKYVTSAPMPEPGAPGFYFTHSILTVTEEEWNSGETYTCVVGHEALPHLVTERTVDKSTGKPTLYNVSLIMSDTGGTCY
light: DVVMTQSPLSLPVSLGDQASISCRSSKSLVHSNGNTYLHWYLQKPGQSPKLLIYKVSNRFSGVPDRFSGSGSGTDFTLKISRVEAEDLGVYFCSQSTHVPPAFGGGTKLEIKRADAAPTVSIFPPSSEQLTSGGASVVCFLNNFYPKDINVKWKIDGSERQNGVLNSWTDQDSKDSTYSMSSTLTLTKDEYERHNSYTCEATHKTSTSPIVKSFNRNEC
chain: DDEATILADNKCMCTRVTSRIIPSTEDPNEDIVERNIRIVVPLNNRENISDPTSPLRRNFVYHLSDVCKKCDPVEVELEDQVVTATQSNICNEDDGVPETCYMYDRNKCYTTMVPLRYHGETKMVQAALTPDSCYPD
B2: 抗ヒトFasヒト化抗体 [B] (pHμM1-1 及び pHκKY2-58 でコ・トランスフェクションしたCOS-7細胞の発現産物; HμM鎖 + VL-KY鎖) (antibody)
heavy: EVQLVQSGAEVKKPGASVKVSCKASGYTFTDYNMHWVKQAHGKSLEWMGYIYPYNGGTGYNQKFKSKATLTVDNSASTAYMELSSLRSEDTAVYYCARSYYAMDYWGQGTLVTVSSGSASAPTLFPLVSCENSPSDTSSVAVGCLAQDFLPDSITFSWKYKNNSDISSTRGFPSVLRGGKYAATSQVLLPSKDVMQGTDEHVVCKVQHPNGNKEKNVPLPVIAELPPKVSVFVPPRDGFFGNPRKSKLICQATGFSPRQIQVSWLREGKQVGSGVTTDQVQAEAKESGPTTYKVTSTLTIKESDWLSQSMFTCRVDHRGLTFQQNASSMCVPDQDTAIRVFAIPPSFASIFLTKSTKLTCLVTDLTTYDSVTISWTRQNGEAVKTHTNISESHPNATFSAVGEASICEDDWNSGERFTCTVTHTDLPSPLKQTISRPKGVALHRPDVYLLPPAREQLNLRESATITCLVTGFSPADVFVQWMQRGQPLSPEKYVTSAPMPEPQAPGRYFAHSILTVSEEEWNTGETYICVVAHEALPNRVTERTVDKSTGKPTLYNVSLVMSDTAGTCY
light: DVVMTQSPLSLPVTLGQPASISCRSSKSLVHSNGNTYLHWYLQKPGQSPKLLIYKVSNRFSGVPDRFSGSGSGTDFTLKISRVEAEDVGVYYCSQSTHVPPAFGQGTKVEIKRTVAAPSVFIFPPSDEQLKSGTASVVCLLNNFYPREAKVQWKVDNALQSGNSQESVTEQDSKDSTYSLSSTLTLSKADYEKHKVYACEVTHQGLSSPVTKSFNRGEC
B3: 抗ヒトFasヒト化抗体 [G] (pHμH5-1 及び pHκKF2-19; HμH鎖 + VL-KF鎖) (antibody, human IgM)
heavy: EVQLVQSGAEVKKPGASVKVSCKASGYTFTDYNMHWVRQAPGQGLEWMGYIYPYNGGTGYNQKFKSKATLTVDNSASTAYMELSSLRSEDTAVYYCARSYYAMDYWGQGTLVTVSSGSASAPTLFPLVSCENSPSDTSSVAVGCLAQDFLPDSITFSWKYKNNSDISSTRGFPSVLRGGKYAATSQVLLPSKDVMQGTDEHVVCKVQHPNGNKEKNVPLPVIAELPPKVSVFVPPRDGFFGNPRKSKLICQATGFSPRQIQVSWLREGKQVGSGVTTDQVQAEAKESGPTTYKVTSTLTIKESDWLSQSMFTCRVDHRGLTFQQNASSMCVPDQDTAIRVFAIPPSFASIFLTKSTKLTCLVTDLTTYDSVTISWTRQNGEAVKTHTNISESHPNATFSAVGEASICEDDWNSGERFTCTVTHTDLPSPLKQTISRPKGVALHRPDVYLLPPAREQLNLRESATITCLVTGFSPADVFVQWMQRGQPLSPEKYVTSAPMPEPQAPGRYFAHSILTVSEEEWNTGETYICVVAHEALPNRVTERTVDKSTGKPTLYNVSLVMSDTAGTCY
light: DVVMTQSPLSLPVTLGQPASISCRSSKSLVHSNGNTYLHWYLQKPGQSPKLLIYKVSNRFSGVPDRFSGSGSGTDFTLKISRVEAEDVGVYFCSQSTHVPPAFGQGTKVEIKRTVAAPSVFIFPPSDEQLKSGTASVVCLLNNFYPREAKVQWKVDNALQSGNSQESVTEQDSKDSTYSLSSTLTLSKADYEKHKVYACEVTHQGLSSPVTKSFNRGEC
B4: 抗ヒトFasヒト化抗体 [C] (pHμM1-1 及び pHκKF2-19; HμM鎖 + VL-KF鎖) (antibody, human IgM)
heavy: EVQLVQSGAEVKKPGASVKVSCKASGYTFTDYNMHWVKQAHGKSLEWMGYIYPYNGGTGYNQKFKSKATLTVDNSASTAYMELSSLRSEDTAVYYCARSYYAMDYWGQGTLVTVSSGSASAPTLFPLVSCENSPSDTSSVAVGCLAQDFLPDSITFSWKYKNNSDISSTRGFPSVLRGGKYAATSQVLLPSKDVMQGTDEHVVCKVQHPNGNKEKNVPLPVIAELPPKVSVFVPPRDGFFGNPRKSKLICQATGFSPRQIQVSWLREGKQVGSGVTTDQVQAEAKESGPTTYKVTSTLTIKESDWLSQSMFTCRVDHRGLTFQQNASSMCVPDQDTAIRVFAIPPSFASIFLTKSTKLTCLVTDLTTYDSVTISWTRQNGEAVKTHTNISESHPNATFSAVGEASICEDDWNSGERFTCTVTHTDLPSPLKQTISRPKGVALHRPDVYLLPPAREQLNLRESATITCLVTGFSPADVFVQWMQRGQPLSPEKYVTSAPMPEPQAPGRYFAHSILTVSEEEWNTGETYICVVAHEALPNRVTERTVDKSTGKPTLYNVSLVMSDTAGTCY
light: DVVMTQSPLSLPVTLGQPASISCRSSKSLVHSNGNTYLHWYLQKPGQSPKLLIYKVSNRFSGVPDRFSGSGSGTDFTLKISRVEAEDVGVYFCSQSTHVPPAFGQGTKVEIKRTVAAPSVFIFPPSDEQLKSGTASVVCLLNNFYPREAKVQWKVDNALQSGNSQESVTEQDSKDSTYSLSSTLTLSKADYEKHKVYACEVTHQGLSSPVTKSFNRGEC
B5: 抗ヒトFasヒト化抗体 [D] (pHμM1-1 及び pHκRY2-10; HμM鎖 + VL-RY鎖) (antibody, human IgM)
heavy: EVQLVQSGAEVKKPGASVKVSCKASGYTFTDYNMHWVKQAHGKSLEWMGYIYPYNGGTGYNQKFKSKATLTVDNSASTAYMELSSLRSEDTAVYYCARSYYAMDYWGQGTLVTVSSGSASAPTLFPLVSCENSPSDTSSVAVGCLAQDFLPDSITFSWKYKNNSDISSTRGFPSVLRGGKYAATSQVLLPSKDVMQGTDEHVVCKVQHPNGNKEKNVPLPVIAELPPKVSVFVPPRDGFFGNPRKSKLICQATGFSPRQIQVSWLREGKQVGSGVTTDQVQAEAKESGPTTYKVTSTLTIKESDWLSQSMFTCRVDHRGLTFQQNASSMCVPDQDTAIRVFAIPPSFASIFLTKSTKLTCLVTDLTTYDSVTISWTRQNGEAVKTHTNISESHPNATFSAVGEASICEDDWNSGERFTCTVTHTDLPSPLKQTISRPKGVALHRPDVYLLPPAREQLNLRESATITCLVTGFSPADVFVQWMQRGQPLSPEKYVTSAPMPEPQAPGRYFAHSILTVSEEEWNTGETYICVVAHEALPNRVTERTVDKSTGKPTLYNVSLVMSDTAGTCY
light: DVVMTQSPLSLPVTLGQPASISCRSSKSLVHSNGNTYLHWYLQKPGQSPRLLIYKVSNRFSGVPDRFSGSGSGTDFTLKISRVEAEDVGVYYCSQSTHVPPAFGQGTKVEIKRTVAAPSVFIFPPSDEQLKSGTASVVCLLNNFYPREAKVQWKVDNALQSGNSQESVTEQDSKDSTYSLSSTLTLSKADYEKHKVYACEVTHQGLSSPVTKSFNRGEC
B6: 抗ヒトFasヒト化抗体 [E] (pHμM1-1 及び pHκRF2-52; HμM鎖 + VL-RF鎖) (antibody, human IgM)
heavy: EVQLVQSGAEVKKPGASVKVSCKASGYTFTDYNMHWVKQAHGKSLEWMGYIYPYNGGTGYNQKFKSKATLTVDNSASTAYMELSSLRSEDTAVYYCARSYYAMDYWGQGTLVTVSSGSASAPTLFPLVSCENSPSDTSSVAVGCLAQDFLPDSITFSWKYKNNSDISSTRGFPSVLRGGKYAATSQVLLPSKDVMQGTDEHVVCKVQHPNGNKEKNVPLPVIAELPPKVSVFVPPRDGFFGNPRKSKLICQATGFSPRQIQVSWLREGKQVGSGVTTDQVQAEAKESGPTTYKVTSTLTIKESDWLSQSMFTCRVDHRGLTFQQNASSMCVPDQDTAIRVFAIPPSFASIFLTKSTKLTCLVTDLTTYDSVTISWTRQNGEAVKTHTNISESHPNATFSAVGEASICEDDWNSGERFTCTVTHTDLPSPLKQTISRPKGVALHRPDVYLLPPAREQLNLRESATITCLVTGFSPADVFVQWMQRGQPLSPEKYVTSAPMPEPQAPGRYFAHSILTVSEEEWNTGETYICVVAHEALPNRVTERTVDKSTGKPTLYNVSLVMSDTAGTCY
light: DVVMTQSPLSLPVTLGQPASISCRSSKSLVHSNGNTYLHWYLQKPGQSPRLLIYKVSNRFSGVPDRFSGSGSGTDFTLKISRVEAEDVGVYFCSQSTHVPPAFGQGTKVEIKRTVAAPSVFIFPPSDEQLKSGTASVVCLLNNFYPREAKVQWKVDNALQSGNSQESVTEQDSKDSTYSLSSTLTLSKADYEKHKVYACEVTHQGLSSPVTKSFNRGEC
B7: 抗ヒトFasヒト化抗体 [I] (pHμH5-1 及び pHκRF2-52; HμH鎖 + VL-RF鎖) (antibody, human IgM)
heavy: EVQLVQSGAEVKKPGASVKVSCKASGYTFTDYNMHWVRQAPGQGLEWMGYIYPYNGGTGYNQKFKSKATLTVDNSASTAYMELSSLRSEDTAVYYCARSYYAMDYWGQGTLVTVSSGSASAPTLFPLVSCENSPSDTSSVAVGCLAQDFLPDSITFSWKYKNNSDISSTRGFPSVLRGGKYAATSQVLLPSKDVMQGTDEHVVCKVQHPNGNKEKNVPLPVIAELPPKVSVFVPPRDGFFGNPRKSKLICQATGFSPRQIQVSWLREGKQVGSGVTTDQVQAEAKESGPTTYKVTSTLTIKESDWLSQSMFTCRVDHRGLTFQQNASSMCVPDQDTAIRVFAIPPSFASIFLTKSTKLTCLVTDLTTYDSVTISWTRQNGEAVKTHTNISESHPNATFSAVGEASICEDDWNSGERFTCTVTHTDLPSPLKQTISRPKGVALHRPDVYLLPPAREQLNLRESATITCLVTGFSPADVFVQWMQRGQPLSPEKYVTSAPMPEPQAPGRYFAHSILTVSEEEWNTGETYICVVAHEALPNRVTERTVDKSTGKPTLYNVSLVMSDTAGTCY
light: DVVMTQSPLSLPVTLGQPASISCRSSKSLVHSNGNTYLHWYLQKPGQSPRLLIYKVSNRFSGVPDRFSGSGSGTDFTLKISRVEAEDVGVYFCSQSTHVPPAFGQGTKVEIKRTVAAPSVFIFPPSDEQLKSGTASVVCLLNNFYPREAKVQWKVDNALQSGNSQESVTEQDSKDSTYSLSSTLTLSKADYEKHKVYACEVTHQGLSSPVTKSFNRGEC

The target in the test is T1, ヒトFas抗原 (ヒトリンパ球細胞株HPB−ALL細胞上). Nature of the test: cell-based or functional assay.
Regarding B1, the “ED 50 (細胞生存率が50%になるIgMの濃度; HPB-ALL 細胞, WST-1)” value is 10.7 ng/mL.

With B2, the “ED 50 (細胞生存率が50%になるIgMの濃度; HPB-ALL 細胞, WST-1)” value stood at 1.1 ng/mL.

With B3, the “ED 50 (細胞生存率が50%になるIgMの濃度; HPB-ALL 細胞, WST-1)” value was determined as 2.4 ng/mL.

Consider B4, for which the “ED 50 (細胞生存率が50%になるIgMの濃度; HPB-ALL 細胞, WST-1)” value worked out at 1 ng/mL.

For the molecule B5, the “ED 50 (細胞生存率が50%になるIgMの濃度; HPB-ALL 細胞, WST-1)” value worked out at 1.7 ng/mL.

Take B6: the “ED 50 (細胞生存率が50%になるIgMの濃度; HPB-ALL 細胞, WST-1)” value stood at 1.5 ng/mL.

As for B7, the “ED 50 (細胞生存率が50%になるIgMの濃度; HPB-ALL 細胞, WST-1)” value was 3.4 ng/mL.
